Assay results reported in publication doi:10.1101/2025.09.29.679124 (bioRxiv, 2025).

T1: MBP-His-D53-D2 (718-1131) (rice (Oryza sativa), UniProt Q2RBP2 718-1131)
T1 sequence (looked up): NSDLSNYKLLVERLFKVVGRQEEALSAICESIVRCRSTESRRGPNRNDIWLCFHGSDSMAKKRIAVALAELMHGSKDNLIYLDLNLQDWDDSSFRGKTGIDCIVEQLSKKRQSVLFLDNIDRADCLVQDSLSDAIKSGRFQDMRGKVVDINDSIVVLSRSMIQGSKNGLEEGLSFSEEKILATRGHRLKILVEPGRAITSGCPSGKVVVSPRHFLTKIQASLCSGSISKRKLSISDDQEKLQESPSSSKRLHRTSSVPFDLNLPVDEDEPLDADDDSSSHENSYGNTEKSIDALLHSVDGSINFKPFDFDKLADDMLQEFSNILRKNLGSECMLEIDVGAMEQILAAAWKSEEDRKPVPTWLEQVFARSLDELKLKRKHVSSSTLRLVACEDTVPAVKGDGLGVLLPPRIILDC

T2: MBP-tagged D3 (2-720) co-expressed with untagged ASK1 (rice (Oryza sativa) | Arabidopsis, UniProt Q5VMP0 2-720; Q39255 1-160)
T2 sequence (looked up) 1: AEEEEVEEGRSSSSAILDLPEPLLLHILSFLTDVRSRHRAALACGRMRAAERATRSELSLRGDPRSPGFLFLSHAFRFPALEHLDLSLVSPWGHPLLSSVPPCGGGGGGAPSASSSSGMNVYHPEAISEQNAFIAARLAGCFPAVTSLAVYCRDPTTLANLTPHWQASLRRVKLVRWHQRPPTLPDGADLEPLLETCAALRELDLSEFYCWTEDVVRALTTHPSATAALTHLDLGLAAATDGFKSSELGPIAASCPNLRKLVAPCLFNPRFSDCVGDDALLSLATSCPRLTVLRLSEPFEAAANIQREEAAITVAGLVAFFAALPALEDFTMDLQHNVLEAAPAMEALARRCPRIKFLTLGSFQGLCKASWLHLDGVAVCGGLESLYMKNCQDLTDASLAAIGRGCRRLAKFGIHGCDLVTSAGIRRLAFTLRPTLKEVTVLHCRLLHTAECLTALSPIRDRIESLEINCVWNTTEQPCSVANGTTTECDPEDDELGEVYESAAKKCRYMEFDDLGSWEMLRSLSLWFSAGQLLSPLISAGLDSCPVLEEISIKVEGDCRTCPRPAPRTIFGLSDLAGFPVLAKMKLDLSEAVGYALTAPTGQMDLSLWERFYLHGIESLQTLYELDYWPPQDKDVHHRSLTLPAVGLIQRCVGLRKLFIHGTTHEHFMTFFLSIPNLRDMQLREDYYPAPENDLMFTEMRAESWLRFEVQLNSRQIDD
T2 sequence (looked up) 2: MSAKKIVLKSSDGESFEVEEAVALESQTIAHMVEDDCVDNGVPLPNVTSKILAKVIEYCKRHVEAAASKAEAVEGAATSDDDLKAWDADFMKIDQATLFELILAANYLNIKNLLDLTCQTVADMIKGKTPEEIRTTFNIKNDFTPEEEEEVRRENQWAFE


What was measured:
[1] = target: T1, MBP-His-D53-D2 (718-1131); assay: pull-down
[2] = target: T2, MBP-tagged D3 (2-720) co-expressed with …; assay: pull-down

Binder | binding result [1] | binding result [2]
GST-D14 (50-318) (receptor, rice (Oryza sativa), UniProt Q10QA5 50-318, looked up) APSGAKLLQILNVRVVGSGERVVVLSHGFGTDQSAWSRVLPYLTRDHRVVLYDLVCAGSVNPDHFDFRRYDNLDAYVDDLLAILDALRIPRCAFVGHSVSAMIGILASIRRPDLFAKLVLIGASPRFLNDSDYHGGFELEEIQQVFDAMGANYSAWATGYAPLAVGADVPAAVQEFSRTLFNMRPDISLHVCQTVFKTDLRGVLGMVRAPCVVVQTTRDVSVPASVAAYLKAHLGGRTTVEFLQTEGHLPHLSAPSLLAQVLRRALARY | binds | –
Glutathione-S-transferase (GST)-tagged D14L (receptor, rice (Oryza sativa), UniProt Q10J20 1-271, looked up) MGIVEEAHNLRVVGEGKRGVIVLAHGFGTDQSVWKHLVPHLVADYRVVLFDTMGAGPTNPDYFDFSRYATLEGYALDLLAILQELRVASCIYVGHSVSAVIGAIASISRPDLFSKLVLLSASPRYLNDVDYYGGFEQEDLDELFEAMGSNYKAWCSGFAPLCVGGDMESVAVQEFSRTLFNIRPDIALSVAQTIFQSDVRSLLPLVTVPCHIVQSTKDLAVPVVVSEYLHKHLGGDSIVEVMPSEGHLPQLSSPDIVIPVLLRHIQHDIAV | – | binds
